A short description of the series: Maximum Tolerated Dose (MTD) study of d9-docetaxel conjugates in athymic mice. The note with it: for MTD (maximum tolerated dose), estimated: athymic nu/nu mice, qwk×3, iv, dose refers to d9-docetaxel content; for Body Weight Nadir / Body Weight Nadir (day): day of nadir / Treatment-Related Deaths: female athymic nu/nu mice, qwk x 3. The format is in vivo, female athymic nu/nu mice. As to the method: MTD for 4-arm-PEG20K-CM-glycine-d9-docetaxel and 4-arm-PEG20K-BA-d9-docetaxel were determined in female athymic nu/nu mice using standard methods. For all test compounds, the dose refers to the d9-docetaxel content. d9-Docetaxel solutions were prepared in D5W containing 7.5% Tween 80:7.5% ethanol. PEG-d9-docetaxel conjugates were prepared in D5W. The administration volume for all test articles was 10 mL/kg. Mice were observed daily for clinical signs and body weights were recorded on days 1-5 and then biweekly until the end of study. Any individual animal with a single observation of greater than 30% body weight loss or three consecutive measurements of greater than 25% body weight loss was euthanized. For any group with two measurements of mean body weight loss of greater than 20%, dosing was stopped and recovery was allowed. Within a group with greater than 20% mean weight loss, individual animals greater than 30% body weight loss were euthanized. Compound dosing was terminated for any group in which mean weight loss exceeded 20% or >10% of animals died. Moribund animals were euthanized and all animals were euthanized at end of study.

The mark [1] stands for this setting: 7.5 mg/kg (d9-docetaxel content) iv.
[2] abbreviates: 30 mg/kg (d9-docetaxel content) iv.
The mark [3] stands for this setting: N=5, 7.5 mg/kg (d9-docetaxel content) iv.
[4] abbreviates: N=5, 15 mg/kg (d9-docetaxel content) iv.
[5] abbreviates: N=5, 30 mg/kg (d9-docetaxel content) iv.
Setting [6] is: 15 mg/kg (d9-docetaxel content) iv.

Consider three molecules from patent US10098865B2, “Multi-arm polymeric prodrug conjugates of taxane-based compounds” (Nektar Therapeutics, priority 2010, dated 2018).

For the molecule “4-ARM-PEG20K-Butanoate-Linked d9-Docetaxel Conjugate [4ARM-PEG20K-BA-d9-DOC]”, the “MTD (maximum tolerated dose), estimated” value is listed as 20 mg/kg. Under setting [1], the “Body Weight Nadir” value is listed as −0.6% and the “Body Weight Nadir (day): day of nadir” value is 2 days. Under setting [2], the “Body Weight Nadir” value is on record as −21.0% and the “Body Weight Nadir (day): day of nadir” value was found to be 21 days. Under setting [3], the “Treatment-Related Deaths” value was 0. The “Treatment-Related Deaths” value under setting [4] is given as 0. Also, under setting [5], the “Treatment-Related Deaths” value was determined as 0.

In the case of “4-ARM-PEG20K-Glycinate-Linked d9-Docetaxel Conjugate [4ARM-PEG20K-CM-GLY-d9-DOC]”, the “MTD (maximum tolerated dose), estimated” value is listed as 20 mg/kg. For the same molecule, under setting [1], the “Body Weight Nadir” value is on record as −1.6% and the “Body Weight Nadir (day): day of nadir” value was 2 days. Also, under setting [6], the “Body Weight Nadir” value was −4.2% and the “Body Weight Nadir (day): day of nadir” value is 10 days. Besides, under setting [2], the “Body Weight Nadir” value is on record as −25.2% and the “Body Weight Nadir (day): day of nadir” value was determined as 21 days. Also, under setting [3], the “Treatment-Related Deaths” value worked out at 0. The “Treatment-Related Deaths” value under setting [4] worked out at 0. In addition, the “Treatment-Related Deaths” value under setting [5] is reported as 0.

As for `[2H]C([2H])([2H])C(OC(=O)N[C@@H](c1ccccc1)[C@@H](O)C(=O)O[C@H]1C[C@@]2(O)[C@@H](OC(=O)c3ccccc3)C3C(C)(C(=O)[C@H](O)C(=C1C)C2(C)C)[C@@H](O)CC1OC[C@]13OC(C)=O)(C([2H])([2H])[2H])C([2H])([2H])[2H]` (stereo partly drawn) [Docetaxel-d9, d9-Docetaxel], for the setting “25 mg/kg iv”, the “Body Weight Nadir” value was −17.7% and the “Body Weight Nadir (day): day of nadir” value was 21 days. In addition, for the setting “N=5, 25 mg/kg iv”, the “Treatment-Related Deaths” value came out at 0.
